Laboratory results: patent US20260209344A1 (NONA BIOSCIENCES SUZHOU, published 2026)
Where a chain is given by its changes, count along the chain named. Blank lines part the entries; values can stand above or below the binder they belong to.

Key:
[1] = molecular target: T1, human CLDN18.1 (claudin 18.1) (human, UniProt P56856 1-261); experiment: FACS on HEK293 hCLDN18.1 cells
T1 construct: whole, on cells; HEK293 hCLDN18.1); also called hCLDN18.1; CLDN18A1
Protocol: (§1) The cell density was adjusted to 10⁶ cells/ml, and 50 μl of cell suspension was added to each well of a 96-well plate. Antibodies were diluted to different concentrations with FACS buffer and 50 μl of antibody dilution was added to each well of the 96-well plate. After incubation at 4° C. for 2 hours, the plate was washed 2 times with FACS buffer. […] After incubation at 4° C. for 1 hour, the plate was washed 2 times with FACS buffer. The cells were resuspended with fixative for monitoring the fluorescence of the cells using a FACS machine (ACEA NovoCyte).

[2] = molecular target: human CLDN18.2 (claudin 18.2) (human); experiment: cell-based or functional assay
[3] = molecular target: T2, human CLDN18.2 (claudin 18.2) (human); experiment: FACS on HEK293 hCLDN18.2 cells, APC anti-human IgG secondary
T2 construct: HEK293 hCLDN18.2) or endogenously on NUGC4_D8 cells; also called hCLDN18.2; CLD18A2
Protocol: as §1

[4] = molecular target: T2, human CLDN18.2 (claudin 18.2); experiment: cell-based or functional assay; remark: listed apart in the source
[5] = molecular target: T2, human CLDN18.2 (claudin 18.2); experiment: FACS on NUGC4_D8 cells endogenously expressing CLDN18.2
Protocol: as §1

[6] = molecular target: T2, human CLDN18.2 (claudin 18.2); experiment: cell-based or functional assay; remark: listed apart in the source
[7] = molecular target: T2, human CLDN18.2 (claudin 18.2); experiment: FACS on NUGC4_D8 cells
Protocol: as §1

[8] = molecular target: T2, human CLDN18.2 (claudin 18.2); experiment: FACS on NUGC4_D8 cells endogenously expressing CLDN18.2; remark: listed apart in the source
Protocol: as §1

T1 sequence (P56856 whole entry): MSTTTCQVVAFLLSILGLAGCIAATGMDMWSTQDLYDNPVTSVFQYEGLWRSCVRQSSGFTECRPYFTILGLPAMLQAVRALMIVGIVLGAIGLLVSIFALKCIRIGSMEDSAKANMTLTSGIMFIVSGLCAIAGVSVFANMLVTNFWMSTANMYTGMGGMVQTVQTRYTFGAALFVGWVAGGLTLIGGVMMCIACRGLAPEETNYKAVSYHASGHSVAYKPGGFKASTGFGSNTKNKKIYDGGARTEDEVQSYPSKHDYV

B1: PR003292 (antibody, human IgG1, kappa)
heavy: EVQLLESGGGLVQPGGSLRLSCAASGFTFSSFVMSWVRQAPGKGLEWVSTISGSGRSTYYADSVKGRFTISRDNSKNTLHLQMNSLRAEDTAVYYCAKDAAAAGTKFDYWGQGTLVTVSSASTKGPSVFPLAPSSKSTSGGTAALGCLVKDYFPEPVTVSWNSGALTSGVHTFPAVLQSSGLYSLSSVVTVPSSSLGTQTYICNVNHKPSNTKVDKKVEPKSCDKTHTCPPCPAPELLGGPSVFLFPPKPKDTLYITREPEVTCVVVDVSHEDPEVKFNWYVDGVEVHNAKTKPREEQYNSTYRVVSVLTVLHQDWLNGKEYKCKVSNKALPAPIEKTISKAKGQPREPQVYTLPPSREEMTKNQVSLTCLVKGFYPSDIAVEWESNGQPENNYKTTPPVLDSDGSFFLYSKLTVDKSRWQQGNVFSCSVMHEALHNHYTQKSLSLSPGK
light: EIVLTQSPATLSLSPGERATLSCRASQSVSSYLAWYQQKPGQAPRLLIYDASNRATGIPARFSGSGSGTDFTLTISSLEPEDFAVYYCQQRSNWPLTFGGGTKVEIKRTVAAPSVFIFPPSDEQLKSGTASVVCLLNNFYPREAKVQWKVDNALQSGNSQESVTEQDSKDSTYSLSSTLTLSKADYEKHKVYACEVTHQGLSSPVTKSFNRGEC
binding result [1]: binds

B2: PR003340 (antibody, human IgG1, kappa)
heavy: EVQLLESGGGLVQPGGSLRLSCAASGFTFSSFVMSWVRQAPGKGLEWVSTISGSGRSTYYADSVKGRFTISRDNSKNTLHLQMNSLRAEDTAVYYCAKDAAAAGTKFDYWGQGTLVTVSSASTKGPSVFPLAPSSKSTSGGTAALGCLVKDYFPEPVTVSWNSGALTSGVHTFPAVLQSSGLYSLSSVVTVPSSSLGTQTYICNVNHKPSNTKVDKKVEPKSCDKTHTCPPCPAPELLGGPDVFLFPPKPKDTLMISRTPEVTCVVVDVSHEDPEVQFNWYVDGVEVHNAKTKPREEQFNSTFRVVSVLTVVHQDWLNGKEYKCKVSNKALPAPEEKTISKTKGQPREPQVYTLPPSREEMTKNQVSLTCLVKGFYPSDIAVEWESNGQPENNYKTTPPMLDSDGSFFLYSKLTVDKSRWQQGNVFSCSVMHEALHNHYTQKSLSLSPGK
light: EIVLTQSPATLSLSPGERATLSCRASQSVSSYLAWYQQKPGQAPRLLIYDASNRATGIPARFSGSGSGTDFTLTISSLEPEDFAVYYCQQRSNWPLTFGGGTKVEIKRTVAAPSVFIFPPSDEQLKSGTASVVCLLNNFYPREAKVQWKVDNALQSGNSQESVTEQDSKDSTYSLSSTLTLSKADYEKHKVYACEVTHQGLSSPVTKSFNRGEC
binding result [1]: binds

B3: PR003293 (antibody, human IgG1, kappa)
heavy: B1 heavy with S242D, I335E
light: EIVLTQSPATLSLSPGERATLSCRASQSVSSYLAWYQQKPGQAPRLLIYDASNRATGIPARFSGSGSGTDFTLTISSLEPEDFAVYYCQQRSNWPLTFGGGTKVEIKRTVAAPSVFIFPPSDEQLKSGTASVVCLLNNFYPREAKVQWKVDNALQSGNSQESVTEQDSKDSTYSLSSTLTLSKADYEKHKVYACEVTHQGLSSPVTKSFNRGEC
binding result [1]: binds

B4: IMAB362 analogue (antibody, human IgG1, kappa, V domains shown)
VH: QVQLQQPGAELVRPGASVKLSCKASGYTFTSYWINWVKQRPGQGLEWIGNIYPSDSYTNYNQKFKDKATLTVDKSSSTAYMQLSSPTSEDSAVYYCTRSWRGNSFDYWGQGTTLTVSS
VL: DIVMTQSPSSLTVTAGEKVTMSCKSSQSLLNSGNQKNYLTWYQQKPGQPPKLLIYWASTRESGVPDRFTGSGSGTDFTLTISSVQAEDLAVYYCQNDYSYPFTFGSGTKLEIKR
notes: Home-made positive control; variable region identical to IMAB362, a few amino acids differ in the constant region; also called PR000400
EC50 (nM), ADCC with human PBMC on NUGC4_D8 cells [2]: 0.91 nM | EC50 [3]: 4 nM | EC50 (nM), CDC on HEK293 hCLDN18.2 cells [4]: 1.07 nM | EC50 [5]: 20.7 nM | EC50 (nM), endocytosis in NUGC4_D8 cells (FACS) [6]: 0.4 nM

The remaining lines, values ahead:

binding result [1]: binds | binding result [7]: binds
B5: PR003897 (antibody, human IgG1, kappa)
heavy: QVQLVESGGGLVQPGGSLRLSCATSGFTFSSYAMSWVRQAPGKGLEWVSLISGSGGSPYYADSVKGRFTISRDNSKNTLYLQMNSLRAEDTAVYYCAKGVVNWGSLFDYWGQGTLVTVSSASTKGPSVFPLAPSSKSTSGGTAALGCLVKDYFPEPVTVSWNSGALTSGVHTFPAVLQSSGLYSLSSVVTVPSSSLGTQTYICNVNHKPSNTKVDKKVEPKSCDKTHTCPPCPAPELLGGPDVFLFPPKPKDTLMISRTPEVTCVVVDVSHEDPEVQFNWYVDGVEVHNAKTKPREEQFNSTFRVVSVLTVVHQDWLNGKEYKCKVSNKALPAPEEKTISKTKGQPREPQVYTLPPSREEMTKNQVSLTCLVKGFYPSDIAVEWESNGQPENNYKTTPPMLDSDGSFFLYSKLTVDKSRWQQGNVFSCSVMHEALHNHYTQKSLSLSPGK
light: not shown

binding result [1]: binds
B6: PR002725 (antibody, human IgG1, kappa, V domains shown)
VH: EVQLLESGGGLVQPGGSLRLSCAASGFTFSGYVMSWVRQAPGKGLEWVSAISGSGGSKYYADSVKGRFTISRDNSKNTLYLQMNSLRAEDTAVYYCAKGDIAVLLFDYWGQGTLVTVSS
VL: EMVMTQSPATLSVSPGERATLSCRASQSVSRNLAWFQQKPGQAPRLLIYGASTRATGIPARFSGSGSGTEFTLTISSLQSEDFAVYYCQQYNNWPLTFGGGTKVEIKR
notes: Human IgG1/kappa; also called clone 11C12-13C2

binding result [8]: binds
B7: PR002727 (antibody, human IgG1, kappa, V domains shown)
VH: EVQLVESGGGVVQPGRSLRLSCAASGFTFSSYGMHWVRQAPGKGLEWVAVIWYDGSNKYYADSVKGRFTISRDNSKNTLYLQMNSLRAEDTAVYYCAKDGYYGSGTYYYYVMNAWGQGASVTVSS
VL: B6 VL with M2I, A19V, R31S, F36Y, N93Y
notes: Human IgG1/kappa; also called clone 31H3E2
